The target in test [1] is T1, Δ34 Pox (Lactobacillus delbrueckii, UniProt Q1G7Z6).
T1 construct: gene pox1; C-terminal truncation lacking the last 34 residues, C-terminal His6, vector pFLAG-CTC, expressed in E. coli LOBSTR
T1 sequence (Q1G7Z6 1-582): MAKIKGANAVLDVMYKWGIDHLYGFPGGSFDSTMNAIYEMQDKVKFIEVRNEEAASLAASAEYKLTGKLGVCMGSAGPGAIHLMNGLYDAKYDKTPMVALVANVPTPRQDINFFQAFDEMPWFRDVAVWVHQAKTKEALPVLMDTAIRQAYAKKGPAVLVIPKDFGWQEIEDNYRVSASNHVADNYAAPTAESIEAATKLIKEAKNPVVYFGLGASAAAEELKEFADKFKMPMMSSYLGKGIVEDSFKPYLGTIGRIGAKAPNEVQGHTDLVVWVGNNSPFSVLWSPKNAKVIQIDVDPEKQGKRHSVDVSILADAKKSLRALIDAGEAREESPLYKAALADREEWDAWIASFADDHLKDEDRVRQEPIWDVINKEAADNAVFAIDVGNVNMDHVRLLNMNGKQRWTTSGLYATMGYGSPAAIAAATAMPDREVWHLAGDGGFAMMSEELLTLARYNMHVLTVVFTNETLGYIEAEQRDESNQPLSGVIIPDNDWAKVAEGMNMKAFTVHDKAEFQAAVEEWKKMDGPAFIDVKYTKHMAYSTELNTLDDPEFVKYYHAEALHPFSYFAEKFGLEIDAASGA
The test can be described thus: fold activity relative to no phospholipid, same coupled assay. It counts as biochemical. The note with it: activator; 50 mM pyruvate, 50 mM phosphate, 15 μM FAD, 300 μM TPP, pH 5.6, 25 °C; lipid suspension.

For test [2], the target named is Pyruvate oxidase (Pox) from Lactobacillus delbrueckii strain STYM1 (Lactobacillus delbrueckii STYM1). Nature of the test: SEC; Superdex 200, 20 mM Bis-Tris pH 6, 150 mM NaCl, 0.5 mL/min; 840 ug purified Pox pre-incubated with 50 mM pyruvate, 300 uM TPP, 15 uM FAD for 10 min at room temperature; molecular weight from a standard curve of protein standards. For orientation: Size exclusion chromatography separates by hydrodynamic size, large species first.

The target is the same in test [3]. Nature of the test: non-reducing SDS-PAGE; Coomassie stain of gel filtration fractions and of purified Pox after SDS-PAGE under non-reducing conditions; disulfide-linked dimer.

“And” between values parts separate entries of the source, which are not always exact repeats. Equal values may be shown once.

Among the data in PMC7245740, “Hydrogen peroxide-producing pyruvate oxidase from Lactobacillus delbrueckii is catalytically activated by phosphotidylethanolamine” (BMC Microbiology, 2020) are fold activity and stoichiometry N values, retold here.

As to `CCCCCCCC/C=C\CCCCCCCC(=O)O[C@H](COC(=O)CCCCCCCCCCCCCCC)COP(=O)(O)OCCN` [phosphotidylethanolamine (16:0–18:1)], in test [1], the fold activity is recorded as ~ 2 fold. Consider “Pyruvate oxidase (Pox) from Lactobacillus delbrueckii strain STYM1 (enzyme)”, for which the stoichiometry N is 10 and 5 in test [2]; 2 in test [3].

One may read the stoichiometry N as the number of molecules, sites or subunits per partner or assembly.
